Laboratory results reported in article PMC7935965, “RNF8 ubiquitinates RecQL4 and promotes its dissociation from DNA double strand breaks” (Oncogenesis, 2021).
One block for each binder: values may come before it.

Legend:
recombinant Flag-RecQL4 [1] = target: T1, recombinant Flag-RecQL4 (human, UniProt O94761 1-1208); assay: pull-down; GST fusion protein immobilised on glutathione Sepharose 4B at 4 °C overnight, incubated with purified Flag-RecQL4 at 4 °C for 4 h; western blot; conditions: both partners purified
T1 construct: also called purified Flag-RecQL4; source: E. coli (BL21 in the results; Rosetta (DE3) in the methods), IPTG-induced, purified
T1 sequence (looked up): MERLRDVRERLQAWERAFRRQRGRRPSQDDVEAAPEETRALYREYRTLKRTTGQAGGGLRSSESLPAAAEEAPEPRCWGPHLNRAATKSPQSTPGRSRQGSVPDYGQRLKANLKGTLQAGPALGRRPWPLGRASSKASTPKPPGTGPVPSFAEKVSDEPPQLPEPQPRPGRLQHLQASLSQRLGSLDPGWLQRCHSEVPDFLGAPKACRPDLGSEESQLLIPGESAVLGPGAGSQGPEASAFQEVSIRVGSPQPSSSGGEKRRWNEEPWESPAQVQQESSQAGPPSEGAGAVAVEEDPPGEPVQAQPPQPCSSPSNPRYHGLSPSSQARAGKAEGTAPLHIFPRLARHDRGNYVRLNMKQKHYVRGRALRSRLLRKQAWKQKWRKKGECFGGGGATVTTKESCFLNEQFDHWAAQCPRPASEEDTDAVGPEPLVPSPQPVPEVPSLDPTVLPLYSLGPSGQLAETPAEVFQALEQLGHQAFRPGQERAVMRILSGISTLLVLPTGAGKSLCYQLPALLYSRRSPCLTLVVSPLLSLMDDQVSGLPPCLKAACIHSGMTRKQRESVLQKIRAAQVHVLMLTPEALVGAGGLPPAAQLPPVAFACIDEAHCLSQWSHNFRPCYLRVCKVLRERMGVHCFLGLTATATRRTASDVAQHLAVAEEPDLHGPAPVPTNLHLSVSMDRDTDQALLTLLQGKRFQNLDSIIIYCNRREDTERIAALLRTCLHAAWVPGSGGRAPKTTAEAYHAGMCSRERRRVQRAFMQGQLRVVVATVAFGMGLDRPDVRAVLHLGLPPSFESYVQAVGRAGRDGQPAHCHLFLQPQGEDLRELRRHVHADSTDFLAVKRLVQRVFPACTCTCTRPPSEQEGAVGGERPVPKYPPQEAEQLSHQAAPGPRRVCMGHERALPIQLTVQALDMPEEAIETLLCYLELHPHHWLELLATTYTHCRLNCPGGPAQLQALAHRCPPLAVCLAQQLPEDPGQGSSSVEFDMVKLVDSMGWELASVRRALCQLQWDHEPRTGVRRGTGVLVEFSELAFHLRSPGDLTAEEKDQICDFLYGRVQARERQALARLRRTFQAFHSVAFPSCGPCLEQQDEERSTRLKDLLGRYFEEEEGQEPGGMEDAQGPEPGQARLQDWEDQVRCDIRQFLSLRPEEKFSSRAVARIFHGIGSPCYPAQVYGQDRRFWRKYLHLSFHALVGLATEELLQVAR

recombinant Flag-RecQL4 [2] = target: T1, recombinant Flag-RecQL4; assay: pull-down; Flag-RecQL4 immobilised on M2 beads at 4 °C overnight, GST fusion proteins added at 4 °C for 4 h; GST-RNF8 with increasing input of GST-WRAP53β; western blot; conditions: both partners purified

binding result (recombinant Flag-RecQL4 [1]): binds
B1: GST-WRAP53β (natural protein)
chain: not shown
notes: WRAP53β; also called purified recombinant GST-WRAP53β; source: E. coli, purified (GST beads)

binding result (recombinant Flag-RecQL4 [2]): binds
B2: GST-RNF8 (natural protein, UniProt O76064-1 1-485, looked up)
chain: MGEPGFFVTGDRAGGRSWCLRRVGMSAGWLLLEDGCEVTVGRGFGVTYQLVSKICPLMISRNHCVLKQNPEGQWTIMDNKSLNGVWLNRARLEPLRVYSIHQGDYIQLGVPLENKENAEYEYEVTEEDWETIYPCLSPKNDQMIEKNKELRTKRKFSLDELAGPGAEGPSNLKSKINKVSCESGQPVKSQGKGEVASTPSDNLDPKLTALEPSKTTGAPIYPGFPKVTEVHHEQKASNSSASQRSLQMFKVTMSRILRLKIQMQEKHEAVMNVKKQTQKGNSKKVVQMEQELQDLQSQLCAEQAQQQARVEQLEKTFQEEEQHLQGLEIAQGEKDLKQQLAQALQEHWALMEELNRSKKDFEAIIQAKNKELEQTKEEKEKMQAQKEEVLSHMNDVLENELQCIICSEYFIEAVTLNCAHSFCSYCINEWMKRKIECPICRKDIKSKTYSLVLDNCINKMVNNLSSEVKERRIVLIRERKAKRLF
notes: RNF8; also called purified recombinant GST-RNF8; source: E. coli BL21, purified (GST beads)
